Measured values reported in patent US20220195071A1 (TORQUE THERAPEUTICS, published 2022).

Target: T1, mouse CD8 (mouse, UniProt P01731 28-247; P10300 22-213)
T1 construct: whole, on cells
Assay: flow cytometry of blood 1 hr after i.v. injection (2 µg/mouse); kappa+ IL-15+ cells

T1 sequence (P01731 28-247, chain 1 of 2): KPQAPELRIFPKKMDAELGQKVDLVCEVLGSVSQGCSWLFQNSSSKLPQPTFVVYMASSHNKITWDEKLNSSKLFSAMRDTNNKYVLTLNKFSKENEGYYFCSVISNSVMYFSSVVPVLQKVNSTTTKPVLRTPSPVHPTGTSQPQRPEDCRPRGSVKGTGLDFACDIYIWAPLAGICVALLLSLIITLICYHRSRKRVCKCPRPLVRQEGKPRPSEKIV
T1 sequence (P10300 22-213, chain 2 of 2): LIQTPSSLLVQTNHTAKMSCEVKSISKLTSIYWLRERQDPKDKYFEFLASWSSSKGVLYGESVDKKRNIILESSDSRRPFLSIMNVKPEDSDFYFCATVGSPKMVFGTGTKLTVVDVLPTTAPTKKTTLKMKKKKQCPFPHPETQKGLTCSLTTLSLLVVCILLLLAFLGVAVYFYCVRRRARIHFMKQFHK

fold higher concentration of circulating tethered-fusion positive cells against vehicle control and chM1Fab-IL15/sushi: > 10 fold
B1: chY169Fab-M1scFv-IL15/sushi (bispecific antibody)
chain 1: EVKLQESGGGLVQPGRSLKLSCAASGFNFNDYWMGWVRQAPGKGLEWIGEINKDSSTINYTPSLKDKFTISRDNAQNTLYLQMSKLGSEDTAIYYCARARGMMVLIIPHYFDYWGQGVMVTVSSASTKGPSVFPLAPSSKSTSGGTAALGCLVKDYFPEPVTVSWNSGALTSGVHTFPAVLQSSGLYSLSSVVTVPSSSLGTQTYICNVNHKPSNTKVDKKVEPKSCGGGGSGGGGSGGGGSQVNLLQSGAALVKPGASVKLSCKASGYTFTDYYIHWVKQSHGKSLEWVAYINPDRDYTNYNEKFKSKATLTVDKSTNTAYMELSRLTSEDSATFYCTRRLYDGAYYYSWFAYWGQGTLVTVSSGGGGSGGGGSGGGGSGGGGSDIQMTQSPHSLSASLGETVSIECLASEGISNYLAWYQQKPGKSPQLLIYYGSRLQDGVPSRFSGSGSGTQYSLRITNMQPEDEGVYYCQQGYKYPYTFGAGTKLELK
chain 2: not shown
chain 3: ITCPPPMSVEHADIWVKSYSLYSRERYICNSGFKRKAGTSSLTECVLNKATNVAHWTTPSLKCIR
